US20040204388A1 (UCB, published 2004)

Molecular target: T1, SV2A (rat); native protein of rat brain membranes, solubilized in n-dodecyl-β-D-maltoside; also endogenous in … (rat, UniProt Q02563 1-742)
T1 construct: Native protein from rat tissue or cells, not a recombinant construct; Native glycosylated integral membrane protein; also called soluble SV2A; immunopurified SV2A
Test: Western blot of fractions immunopurified with anti-SV2A antibodies from solubilized rat brain membranes
Procedure: The rat brain membranes were diluted in a solubilization buffer (Tris-HCl 20 mM pH 7.4, 0.25 M sucrose, protease inhibitors Complete Roche) containing n-dodecyl-β-D-maltoside 15 mM and incubated for two hours at 4° C. Subsequently, the solution was centrifuged at 4° C. for one hour at 100,000 g.

T1 sequence (Q02563 whole entry C340F): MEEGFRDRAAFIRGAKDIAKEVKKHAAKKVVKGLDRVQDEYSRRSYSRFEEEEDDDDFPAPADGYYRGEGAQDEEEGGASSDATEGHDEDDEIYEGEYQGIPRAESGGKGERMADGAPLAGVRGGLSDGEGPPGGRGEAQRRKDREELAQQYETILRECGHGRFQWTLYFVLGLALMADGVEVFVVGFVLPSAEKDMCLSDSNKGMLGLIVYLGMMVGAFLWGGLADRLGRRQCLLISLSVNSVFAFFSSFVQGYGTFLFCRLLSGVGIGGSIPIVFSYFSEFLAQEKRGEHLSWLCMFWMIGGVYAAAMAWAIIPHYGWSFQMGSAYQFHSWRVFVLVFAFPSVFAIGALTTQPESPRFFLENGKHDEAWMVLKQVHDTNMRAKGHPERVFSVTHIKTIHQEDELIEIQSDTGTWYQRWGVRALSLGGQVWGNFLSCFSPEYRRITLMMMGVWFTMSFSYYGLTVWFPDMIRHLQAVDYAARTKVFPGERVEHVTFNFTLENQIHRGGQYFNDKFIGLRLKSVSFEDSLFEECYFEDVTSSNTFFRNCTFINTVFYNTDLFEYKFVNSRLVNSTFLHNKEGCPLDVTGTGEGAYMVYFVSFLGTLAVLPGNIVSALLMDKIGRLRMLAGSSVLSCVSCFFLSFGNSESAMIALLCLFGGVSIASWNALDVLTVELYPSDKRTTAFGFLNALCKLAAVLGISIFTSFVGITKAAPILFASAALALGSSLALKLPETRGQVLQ

B1: SV2B (rat; native isoform in rat brain membranes) (other)
chain: MDDYRYRDNYEGYAPNDGYYRGNEQNPEEDAQSDVTEGHDEEDEIYEGEYQGIPHPDDVKSKQTKMAPSRADGLRGQADLMAERMEDEEQLAHQYETIIDECGHGRFQWTLFFVLVLALMADGVEVFVVSFALPSAEKDMCLSSSKKGMLGLIVYLGMMAGAFILGGLADKLGRKKVLSMSLAINASFASLSSFVQGYGAFLFCRLISGIGIGGSLPIVFAYFSEFLSREKRGEHLSWLGIFWMTGGIYASAMAWSIIPHYGWGFSMGTNYHFHSWRVFVIVCALPATVSMVALKFMPESPRFLLEMGKHDEAWMILKQVHDTNMRAKGTPEKVFTVSHIKTPKQMDEFIEIQSSTGTWYQRWLVRFMTIFKQVWDNALYCVMGPYRMNTLILAVVWFTMALSYYGLTVWFPDMIRYFQDEEYKSKMKVFFGEHVHGATINFTMENQIHQHGKLVNDKFIKMYFKHVLFEDTFFDKCYFEDVTSTDTYFKNCTIESTTFYNTDLYKHKFIDCRFINSTFLEQKEGCHMDFEEDNDFLIYLVSFLGSLSVLPGNIISALLMDRIGRLKMIGGSMLISAVCCFFLFFGNSESAMIGWQCLFCGTSIAAWNALDVITVELYPTNQRATAFGILNGLCKLGAILGNTIFASFVGITKVVPILLAAASLVGGGLVALRLPETREQVLM
notes: Native protein of rat brain; also called isoform SV2B
binding result: no binding
